Consider 11 molecules from patent US20260356929 (published 2026).

T1: human VEGF-A165b (human, UniProt P15692)
T1 chain: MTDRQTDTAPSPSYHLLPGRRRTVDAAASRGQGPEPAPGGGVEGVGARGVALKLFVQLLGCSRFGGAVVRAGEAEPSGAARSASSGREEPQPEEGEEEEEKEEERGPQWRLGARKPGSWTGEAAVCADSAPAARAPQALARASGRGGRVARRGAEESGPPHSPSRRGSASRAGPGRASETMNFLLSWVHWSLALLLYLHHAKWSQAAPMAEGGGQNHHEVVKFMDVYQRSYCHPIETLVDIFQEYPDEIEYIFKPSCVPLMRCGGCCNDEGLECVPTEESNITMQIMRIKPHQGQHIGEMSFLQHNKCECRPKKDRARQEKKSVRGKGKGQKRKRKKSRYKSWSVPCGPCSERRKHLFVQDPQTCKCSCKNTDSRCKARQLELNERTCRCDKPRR

B1: HC0 LC0 (chimeric Ab 1126) (antibody, V domains shown)
VH: EVKLLESGGGLVQPGGSLKLSCAASGFDFSRYWMSWVRQAPGKGLEWIGEIHPYSSTINYTPSVKDKFIISRDNAKNTLYLQMSEVRSEDTALYYCARAFAYWGQGTLVTVSA
VL: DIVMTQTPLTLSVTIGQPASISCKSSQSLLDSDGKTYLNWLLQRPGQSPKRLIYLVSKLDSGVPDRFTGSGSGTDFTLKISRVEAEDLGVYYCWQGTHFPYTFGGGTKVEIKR
B2: HC3 LC1 (antibody, V domains shown)
VH: EVQLVESGGGLVQPGGSLRLSCAASGFDFSRYWMSWVRQAPGKGLEWISEIHPYSSTINYTPSVKDRFTISRDNAKNSLYLQMNSLRDEDTALYYCARAFAYWGQGTLVTVSS
VL: DVVMTQSPLSLPVTLGQPASISCKSSQSLLDSDGKTYLNWFQQRPGQSPRRLIYLVSKLDSGVPDRFSGSGSGTDFTLKISRVEAEDVGVYYCWQGTHFPYTFGGGTKVEIKR
B3: HC1 LC2 (antibody, V domains shown)
VH: EVQLLESGGGLVKPGGSLRLSCAASGFDFSRYWMSWIRQAPGKGLEWVSEIHPYSSTINYTPSVKDRFTISRDNAKNSLYLQMNSLRAEDTAVYYCARAFAYWGQGTLVTVSS
VL: DVVMTQSPLSLPVTLGQPASISCRSSQSLLDSDGKTYLNWELQRPGQSPRRLIYLVSKLDSGVPDRFSGSGSGTDFTLKISRVEAEDVGVYYCWQGTHFPYTFGQGTKVEIKR
B4: HC1 LC1 (antibody, V domains shown)
VH: EVQLLESGGGLVKPGGSLRLSCAASGFDFSRYWMSWIRQAPGKGLEWVSEIHPYSSTINYTPSVKDRFTISRDNAKNSLYLQMNSLRAEDTAVYYCARAFAYWGQGTLVTVSS
VL: DVVMTQSPLSLPVTLGQPASISCKSSQSLLDSDGKTYLNWFQQRPGQSPRRLIYLVSKLDSGVPDRFSGSGSGTDFTLKISRVEAEDVGVYYCWQGTHFPYTFGGGTKVEIKR
B5: HC3 LC2 (antibody, V domains shown)
VH: EVQLVESGGGLVQPGGSLRLSCAASGFDFSRYWMSWVRQAPGKGLEWISEIHPYSSTINYTPSVKDRFTISRDNAKNSLYLQMNSLRDEDTALYYCARAFAYWGQGTLVTVSS
VL: DVVMTQSPLSLPVTLGQPASISCRSSQSLLDSDGKTYLNWELQRPGQSPRRLIYLVSKLDSGVPDRFSGSGSGTDFTLKISRVEAEDVGVYYCWQGTHFPYTFGQGTKVEIKR
B6: HC2 LC2 (antibody, V domains shown)
VH: EVQLVESGGGLVQPGGSLRLSCAASGFDFSRYWMSWVRQAPGKGLEWVAEIHPYSSTINYTPSVKDRFIISRDNAKNSVYLQLNSLRAEDTAVYYCARAFAYWGQGTLVTVSS
VL: DVVMTQSPLSLPVTLGQPASISCRSSQSLLDSDGKTYLNWELQRPGQSPRRLIYLVSKLDSGVPDRFSGSGSGTDFTLKISRVEAEDVGVYYCWQGTHFPYTFGQGTKVEIKR
B7: HC5 LC1 (antibody, V domains shown)
VH: EVQLVESGGGLVQPGGSLRLSCAASGFDFSRYWMSWVRQAPGKGLEWVSEIHPYSSTINYTPSVKDRFTISRDNAKNSLYLQMNSLRAEDTAVYYCARAFAYWGQGTLVTVSA
VL: DVVMTQSPLSLPVTLGQPASISCKSSQSLLDSDGKTYLNWFQQRPGQSPRRLIYLVSKLDSGVPDRFSGSGSGTDFTLKISRVEAEDVGVYYCWQGTHFPYTFGGGTKVEIKR
B8: HC4 LC1 (antibody, V domains shown)
VH: EVQLVESGGGLVQPGGSLRLSCAASGFDFSRYWMSWVRQAPGKGLEWVAEIHPYSSTINYTPSVKDRFTISRDNAKNSLYLQMNSLRSEDTAVYYCARAFAYWGQGTLVTVSS
VL: DVVMTQSPLSLPVTLGQPASISCKSSQSLLDSDGKTYLNWFQQRPGQSPRRLIYLVSKLDSGVPDRFSGSGSGTDFTLKISRVEAEDVGVYYCWQGTHFPYTFGGGTKVEIKR
B9: HC4 LC2 (Vexobicizumab) (antibody, V domains shown)
VH: EVQLVESGGGLVQPGGSLRLSCAASGFDFSRYWMSWVRQAPGKGLEWVAEIHPYSSTINYTPSVKDRFTISRDNAKNSLYLQMNSLRSEDTAVYYCARAFAYWGQGTLVTVSS
VL: DVVMTQSPLSLPVTLGQPASISCRSSQSLLDSDGKTYLNWELQRPGQSPRRLIYLVSKLDSGVPDRFSGSGSGTDFTLKISRVEAEDVGVYYCWQGTHFPYTFGQGTKVEIKR
B10: HC2 LC1 (antibody, V domains shown)
VH: EVQLVESGGGLVQPGGSLRLSCAASGFDFSRYWMSWVRQAPGKGLEWVAEIHPYSSTINYTPSVKDRFIISRDNAKNSVYLQLNSLRAEDTAVYYCARAFAYWGQGTLVTVSS
VL: DVVMTQSPLSLPVTLGQPASISCKSSQSLLDSDGKTYLNWFQQRPGQSPRRLIYLVSKLDSGVPDRFSGSGSGTDFTLKISRVEAEDVGVYYCWQGTHFPYTFGGGTKVEIKR
B11: HC5 LC2 (antibody, V domains shown)
VH: EVQLVESGGGLVQPGGSLRLSCAASGFDFSRYWMSWVRQAPGKGLEWVSEIHPYSSTINYTPSVKDRFTISRDNAKNSLYLQMNSLRAEDTAVYYCARAFAYWGQGTLVTVSA
VL: DVVMTQSPLSLPVTLGQPASISCRSSQSLLDSDGKTYLNWELQRPGQSPRRLIYLVSKLDSGVPDRFSGSGSGTDFTLKISRVEAEDVGVYYCWQGTHFPYTFGQGTKVEIKR

The experiment deals with T1, human VEGF-A165b. Kind of experiment: BLI 25C.
B1 had an equilibrium dissociation constant (Kd) of 0.3 nM. Next, B2: 1.5 nM; B3: 2.1 nM. Next, B4: 5 nM; B5: 1.17 nM. To B6 belongs 3.6 nM. The molecule B7 gave an equilibrium dissociation constant (Kd) of 3.2 nM. The Kd values of the last two molecules are within 1.5-fold of each other. Next, B8: 0.9 nM; B9: 0.6 nM; B10: 4.4 nM. Next, B11: 0.6 nM.
